In patent US20230357348A1 (AstraZeneca / MedImmune, published 2023):
Starred links: 1 amine or outer side, 2 acyl side, 3 side chain; linkers in the order of their positions; H or OH if unused. Non-standard residues stand in square brackets, D forms with d. Groups on a side chain read outwards from the residue. Primed or numbered codes have the meaning given here. No end group written: not given here. *: point of attachment. C20 diacid = O=C(O)CCCCCCCCCCCCCCCCCCC(=O)*; C18 diacid = O=C(O)CCCCCCCCCCCCCCCCC(=O)*; γGlu = O=C(O)[C@H](CCC(=O)[*:2])N[*:1]; αMeF = C[C@](N)(Cc1ccccc1)C(=O)O; PEG4′ = polyethylene glycol; AEEA = NCCOCCOCC(=O)O; Aib = CC(C)(N)C(=O)O

B1: Peptide 40 (peptide)
peptide: H[Aib]QGTFTSDVSK[αMeF]LDSK([AEEA-AEEA-γGlu-C18 diacid])RAQDFVQWLL[Aib]T-OH
modifications: N-terminus assumed
SMILES: CC(C)C[C@H](NC(=O)[C@H](Cc1c[nH]c2ccccc12)NC(=O)[C@H](CCC(N)=O)NC(=O)[C@@H](NC(=O)[C@H](Cc1ccccc1)NC(=O)[C@H](CC(=O)O)NC(=O)[C@H](CCC(N)=O)NC(=O)[C@H](C)NC(=O)[C@H](CCCNC(=N)N)NC(=O)[C@H](CCCCNC(=O)COCCOCCNC(=O)COCCOCCNC(=O)CC[C@H](NC(=O)CCCCCCCCCCCCCCCCC(=O)O)C(=O)O)NC(=O)[C@H](CO)NC(=O)[C@H](CC(=O)O)NC(=O)[C@H](CC(C)C)NC(=O)[C@](C)(Cc1ccccc1)NC(=O)[C@H](CCCCN)NC(=O)[C@H](CO)NC(=O)[C@@H](NC(=O)[C@H](CC(=O)O)NC(=O)[C@H](CO)NC(=O)[C@@H](NC(=O)[C@H](Cc1ccccc1)NC(=O)[C@@H](NC(=O)CNC(=O)[C@H](CCC(N)=O)NC(=O)C(C)(C)NC(=O)[C@@H](N)Cc1c[nH]cn1)[C@@H](C)O)[C@@H](C)O)C(C)C)C(C)C)C(=O)N[C@@H](CC(C)C)C(=O)NC(C)(C)C(=O)N[C@H](C(=O)O)[C@@H](C)O
B2: Peptide 41 (peptide)
peptide: H[Aib]QGTFTSDYSK[αMeF]LDSK([AEEA-AEEA-γGlu-C18 diacid])RAQDFVQWLV[PEG4′]-NH2
B3: Peptide 42 (peptide)
peptide: H[Aib]QGTFTSDVSK[αMeF]LDSK([AEEA-AEEA-γGlu-C18 diacid])RAQDFVQ[Aib]LVAT-OH
modifications: N-terminus assumed
SMILES: CC(C)C[C@H](NC(=O)C(C)(C)NC(=O)[C@H](CCC(N)=O)NC(=O)[C@@H](NC(=O)[C@H](Cc1ccccc1)NC(=O)[C@H](CC(=O)O)NC(=O)[C@H](CCC(N)=O)NC(=O)[C@H](C)NC(=O)[C@H](CCCNC(=N)N)NC(=O)[C@H](CCCCNC(=O)COCCOCCNC(=O)COCCOCCNC(=O)CC[C@H](NC(=O)CCCCCCCCCCCCCCCCC(=O)O)C(=O)O)NC(=O)[C@H](CO)NC(=O)[C@H](CC(=O)O)NC(=O)[C@H](CC(C)C)NC(=O)[C@](C)(Cc1ccccc1)NC(=O)[C@H](CCCCN)NC(=O)[C@H](CO)NC(=O)[C@@H](NC(=O)[C@H](CC(=O)O)NC(=O)[C@H](CO)NC(=O)[C@@H](NC(=O)[C@H](Cc1ccccc1)NC(=O)[C@@H](NC(=O)CNC(=O)[C@H](CCC(N)=O)NC(=O)C(C)(C)NC(=O)[C@@H](N)Cc1c[nH]cn1)[C@@H](C)O)[C@@H](C)O)C(C)C)C(C)C)C(=O)N[C@H](C(=O)N[C@@H](C)C(=O)N[C@H](C(=O)O)[C@@H](C)O)C(C)C
B4: Peptide 3 (peptide)
peptide: HSQGS[αMeF]TSDVSK[αMeF]LDSK([γGlu-C18 diacid])AAQDFVQWIANT-NH2
modifications: N-terminus assumed
SMILES: CC[C@H](C)[C@H](NC(=O)[C@H](Cc1c[nH]c2ccccc12)NC(=O)[C@H](CCC(N)=O)NC(=O)[C@@H](NC(=O)[C@H](Cc1ccccc1)NC(=O)[C@H](CC(=O)O)NC(=O)[C@H](CCC(N)=O)NC(=O)[C@H](C)NC(=O)[C@H](C)NC(=O)[C@H](CCCCNC(=O)CC[C@H](NC(=O)CCCCCCCCCCCCCCCCC(=O)O)C(=O)O)NC(=O)[C@H](CO)NC(=O)[C@H](CC(=O)O)NC(=O)[C@H](CC(C)C)NC(=O)[C@](C)(Cc1ccccc1)NC(=O)[C@H](CCCCN)NC(=O)[C@H](CO)NC(=O)[C@@H](NC(=O)[C@H](CC(=O)O)NC(=O)[C@H](CO)NC(=O)[C@@H](NC(=O)[C@](C)(Cc1ccccc1)NC(=O)[C@H](CO)NC(=O)CNC(=O)[C@H](CCC(N)=O)NC(=O)[C@H](CO)NC(=O)[C@@H](N)Cc1c[nH]cn1)[C@@H](C)O)C(C)C)C(C)C)C(=O)N[C@@H](C)C(=O)N[C@@H](CC(N)=O)C(=O)N[C@H](C(N)=O)[C@@H](C)O
B5: Peptide 136 (peptide)
peptide: H[Aib]QGTFTSDVSK[αMeF]LDSK([γGlu-γGlu-AEEA-AEEA-γGlu-γGlu-C18 diacid])RARDFVRWLLE[Aib]G-OH
modifications: N-terminus assumed
SMILES: CC(C)C[C@H](NC(=O)[C@H](Cc1c[nH]c2ccccc12)NC(=O)[C@H](CCCNC(=N)N)NC(=O)[C@@H](NC(=O)[C@H](Cc1ccccc1)NC(=O)[C@H](CC(=O)O)NC(=O)[C@H](CCCNC(=N)N)NC(=O)[C@H](C)NC(=O)[C@H](CCCNC(=N)N)NC(=O)[C@H](CCCCNC(=O)CC[C@H](NC(=O)CC[C@H](NC(=O)COCCOCCNC(=O)COCCOCCNC(=O)CC[C@H](NC(=O)CC[C@H](NC(=O)CCCCCCCCCCCCCCCCC(=O)O)C(=O)O)C(=O)O)C(=O)O)C(=O)O)NC(=O)[C@H](CO)NC(=O)[C@H](CC(=O)O)NC(=O)[C@H](CC(C)C)NC(=O)[C@](C)(Cc1ccccc1)NC(=O)[C@H](CCCCN)NC(=O)[C@H](CO)NC(=O)[C@@H](NC(=O)[C@H](CC(=O)O)NC(=O)[C@H](CO)NC(=O)[C@@H](NC(=O)[C@H](Cc1ccccc1)NC(=O)[C@@H](NC(=O)CNC(=O)[C@H](CCC(N)=O)NC(=O)C(C)(C)NC(=O)[C@@H](N)Cc1c[nH]cn1)[C@@H](C)O)[C@@H](C)O)C(C)C)C(C)C)C(=O)N[C@@H](CC(C)C)C(=O)N[C@@H](CCC(=O)O)C(=O)NC(C)(C)C(=O)NCC(=O)O
B6: Peptide 137 (peptide)
peptide: H[Aib]QGTFTSDVSK[αMeF]LDSK([γGlu-γGlu-AEEA-AEEA-γGlu-γGlu-C18 diacid])RAQDFVRWLLEG[Aib]-OH
modifications: N-terminus assumed
SMILES: CC(C)C[C@H](NC(=O)[C@H](CC(C)C)NC(=O)[C@H](Cc1c[nH]c2ccccc12)NC(=O)[C@H](CCCNC(=N)N)NC(=O)[C@@H](NC(=O)[C@H](Cc1ccccc1)NC(=O)[C@H](CC(=O)O)NC(=O)[C@H](CCC(N)=O)NC(=O)[C@H](C)NC(=O)[C@H](CCCNC(=N)N)NC(=O)[C@H](CCCCNC(=O)CC[C@H](NC(=O)CC[C@H](NC(=O)COCCOCCNC(=O)COCCOCCNC(=O)CC[C@H](NC(=O)CC[C@H](NC(=O)CCCCCCCCCCCCCCCCC(=O)O)C(=O)O)C(=O)O)C(=O)O)C(=O)O)NC(=O)[C@H](CO)NC(=O)[C@H](CC(=O)O)NC(=O)[C@H](CC(C)C)NC(=O)[C@](C)(Cc1ccccc1)NC(=O)[C@H](CCCCN)NC(=O)[C@H](CO)NC(=O)[C@@H](NC(=O)[C@H](CC(=O)O)NC(=O)[C@H](CO)NC(=O)[C@@H](NC(=O)[C@H](Cc1ccccc1)NC(=O)[C@@H](NC(=O)CNC(=O)[C@H](CCC(N)=O)NC(=O)C(C)(C)NC(=O)[C@@H](N)Cc1c[nH]cn1)[C@@H](C)O)[C@@H](C)O)C(C)C)C(C)C)C(=O)N[C@@H](CCC(=O)O)C(=O)NCC(=O)NC(C)(C)C(=O)O
B7: Peptide 138 (peptide)
peptide: H[Aib]QGTFTSDVSK[αMeF]LDSK([γGlu-γGlu-AEEA-AEEA-γGlu-γGlu-C18 diacid])RAQDFVRWLLE[Aib]G-OH
modifications: N-terminus assumed
SMILES: CC(C)C[C@H](NC(=O)[C@H](Cc1c[nH]c2ccccc12)NC(=O)[C@H](CCCNC(=N)N)NC(=O)[C@@H](NC(=O)[C@H](Cc1ccccc1)NC(=O)[C@H](CC(=O)O)NC(=O)[C@H](CCC(N)=O)NC(=O)[C@H](C)NC(=O)[C@H](CCCNC(=N)N)NC(=O)[C@H](CCCCNC(=O)CC[C@H](NC(=O)CC[C@H](NC(=O)COCCOCCNC(=O)COCCOCCNC(=O)CC[C@H](NC(=O)CC[C@H](NC(=O)CCCCCCCCCCCCCCCCC(=O)O)C(=O)O)C(=O)O)C(=O)O)C(=O)O)NC(=O)[C@H](CO)NC(=O)[C@H](CC(=O)O)NC(=O)[C@H](CC(C)C)NC(=O)[C@](C)(Cc1ccccc1)NC(=O)[C@H](CCCCN)NC(=O)[C@H](CO)NC(=O)[C@@H](NC(=O)[C@H](CC(=O)O)NC(=O)[C@H](CO)NC(=O)[C@@H](NC(=O)[C@H](Cc1ccccc1)NC(=O)[C@@H](NC(=O)CNC(=O)[C@H](CCC(N)=O)NC(=O)C(C)(C)NC(=O)[C@@H](N)Cc1c[nH]cn1)[C@@H](C)O)[C@@H](C)O)C(C)C)C(C)C)C(=O)N[C@@H](CC(C)C)C(=O)N[C@@H](CCC(=O)O)C(=O)NC(C)(C)C(=O)NCC(=O)O
B8: Peptide 139 (peptide)
peptide: H[Aib]QGTFTSDVSK[αMeF]LDSK([γGlu-γGlu-AEEA-AEEA-γGlu-γGlu-C20 diacid])RAQDFVRWLLE[Aib]G-OH
B9: Peptide 141 (peptide)
peptide: H[Aib]QGTFTSDVSK[αMeF]LDSK([AEEA-AEEA-γGlu-C18 diacid])RAQDFVAWLLE[Aib]G-OH
modifications: N-terminus assumed
SMILES: CC(C)C[C@H](NC(=O)[C@H](Cc1c[nH]c2ccccc12)NC(=O)[C@H](C)NC(=O)[C@@H](NC(=O)[C@H](Cc1ccccc1)NC(=O)[C@H](CC(=O)O)NC(=O)[C@H](CCC(N)=O)NC(=O)[C@H](C)NC(=O)[C@H](CCCNC(=N)N)NC(=O)[C@H](CCCCNC(=O)COCCOCCNC(=O)COCCOCCNC(=O)CC[C@H](NC(=O)CCCCCCCCCCCCCCCCC(=O)O)C(=O)O)NC(=O)[C@H](CO)NC(=O)[C@H](CC(=O)O)NC(=O)[C@H](CC(C)C)NC(=O)[C@](C)(Cc1ccccc1)NC(=O)[C@H](CCCCN)NC(=O)[C@H](CO)NC(=O)[C@@H](NC(=O)[C@H](CC(=O)O)NC(=O)[C@H](CO)NC(=O)[C@@H](NC(=O)[C@H](Cc1ccccc1)NC(=O)[C@@H](NC(=O)CNC(=O)[C@H](CCC(N)=O)NC(=O)C(C)(C)NC(=O)[C@@H](N)Cc1c[nH]cn1)[C@@H](C)O)[C@@H](C)O)C(C)C)C(C)C)C(=O)N[C@@H](CC(C)C)C(=O)N[C@@H](CCC(=O)O)C(=O)NC(C)(C)C(=O)NCC(=O)O

Biological target: human GLP-1 receptor (hGLP-1R) (human, UniProt P43220 24-463)
Test: cell-based or functional assay

| Binder | hGLP-1R EC50 (pM) |
| --- | --- |
| B1 | 29.9 pM |
| B2 | 663 pM |
| B3 | 665 pM |
| B4 | 69 pM |
| B5 | 45.2 pM |
| B6 | 143 pM |
| B7 | 104 pM |
| B8 | 630 pM |
| B9 | 264 pM |

Biological target: human glucagon receptor (hGCGR) (human, UniProt P47871 26-477)
Test: cell-based or functional assay

Chain of human glucagon receptor (hGCGR) (P47871 26-477): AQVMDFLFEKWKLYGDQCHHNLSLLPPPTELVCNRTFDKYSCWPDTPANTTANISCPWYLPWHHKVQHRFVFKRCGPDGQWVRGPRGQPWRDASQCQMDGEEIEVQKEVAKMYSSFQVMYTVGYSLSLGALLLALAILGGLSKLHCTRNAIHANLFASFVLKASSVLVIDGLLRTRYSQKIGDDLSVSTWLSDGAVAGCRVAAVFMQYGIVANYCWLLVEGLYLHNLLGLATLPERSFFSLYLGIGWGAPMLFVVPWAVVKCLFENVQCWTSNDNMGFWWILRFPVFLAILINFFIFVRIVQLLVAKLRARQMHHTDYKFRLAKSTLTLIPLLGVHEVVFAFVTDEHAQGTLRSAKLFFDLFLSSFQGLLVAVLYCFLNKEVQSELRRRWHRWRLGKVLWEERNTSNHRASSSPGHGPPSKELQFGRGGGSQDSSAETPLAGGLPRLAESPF

| Binder | hGluc-R EC50 (pM) |
| --- | --- |
| B1 | 123 pM |
| B2 | 5740 pM |
| B3 | 8190 pM |
| B4 | 149 pM |
| B5 | 509 pM |
| B6 | 268 pM |
| B7 | 184 pM |
| B8 | 984 pM |
| B9 | 392 pM |
